Measured values published in patent US20240141059A1 (Bristol-Myers Squibb, published 2024).
Numbering of substitutions follows the chain as printed. Names may count otherwise. “And” between values parts separate entries of the source, which are not always exact repeats. Equal values may be shown once.

T1: hCD73-his (human, UniProt P21589 26-546)
T1 construct: range 26-546; also called full length extracellular domain of human-CD73
T1 sequence (looked up): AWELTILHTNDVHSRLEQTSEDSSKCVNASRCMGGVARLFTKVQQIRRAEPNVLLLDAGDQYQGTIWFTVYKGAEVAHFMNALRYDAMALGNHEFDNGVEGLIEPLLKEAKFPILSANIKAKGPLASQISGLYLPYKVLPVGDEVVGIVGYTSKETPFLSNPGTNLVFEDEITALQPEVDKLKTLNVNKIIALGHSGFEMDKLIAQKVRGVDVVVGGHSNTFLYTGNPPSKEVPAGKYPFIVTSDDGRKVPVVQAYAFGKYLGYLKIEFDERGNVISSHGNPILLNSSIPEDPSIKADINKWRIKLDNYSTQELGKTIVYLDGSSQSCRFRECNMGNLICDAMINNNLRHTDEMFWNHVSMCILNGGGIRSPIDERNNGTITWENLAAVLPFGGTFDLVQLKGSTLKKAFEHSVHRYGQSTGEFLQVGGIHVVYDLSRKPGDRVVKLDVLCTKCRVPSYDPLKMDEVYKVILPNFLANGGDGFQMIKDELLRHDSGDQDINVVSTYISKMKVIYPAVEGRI

T2: human CD73 on cells (human, UniProt P21589 27-549)
T2 sequence (looked up): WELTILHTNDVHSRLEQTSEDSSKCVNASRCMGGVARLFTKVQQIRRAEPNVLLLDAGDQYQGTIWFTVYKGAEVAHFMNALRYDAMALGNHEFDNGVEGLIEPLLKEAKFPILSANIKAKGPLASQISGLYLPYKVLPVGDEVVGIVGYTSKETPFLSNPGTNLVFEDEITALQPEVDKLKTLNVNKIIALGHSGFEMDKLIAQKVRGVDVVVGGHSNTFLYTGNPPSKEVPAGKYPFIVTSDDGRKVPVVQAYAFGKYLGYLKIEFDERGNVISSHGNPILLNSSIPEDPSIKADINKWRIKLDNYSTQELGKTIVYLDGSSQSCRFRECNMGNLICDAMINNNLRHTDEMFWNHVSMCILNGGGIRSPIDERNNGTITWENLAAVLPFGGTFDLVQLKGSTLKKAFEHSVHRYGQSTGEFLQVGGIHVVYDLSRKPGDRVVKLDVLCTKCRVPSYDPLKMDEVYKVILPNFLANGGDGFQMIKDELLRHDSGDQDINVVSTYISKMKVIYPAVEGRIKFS

T3: N-hCD73-his (human, UniProt P21589 26-336, limits assumed)
T3 construct: monomeric in solution by SEC-MALS; also called N-terminal domain of hCD73
T3 sequence (looked up): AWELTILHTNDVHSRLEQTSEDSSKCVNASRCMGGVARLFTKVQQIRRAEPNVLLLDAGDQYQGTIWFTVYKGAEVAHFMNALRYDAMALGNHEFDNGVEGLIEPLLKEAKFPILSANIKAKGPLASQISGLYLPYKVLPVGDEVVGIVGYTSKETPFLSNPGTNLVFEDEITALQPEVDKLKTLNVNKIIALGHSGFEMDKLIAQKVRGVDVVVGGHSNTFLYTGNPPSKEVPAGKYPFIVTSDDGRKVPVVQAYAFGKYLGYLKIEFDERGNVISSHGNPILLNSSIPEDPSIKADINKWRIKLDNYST

B1: 3h56-269-IgG1.3f (Fc fusion)
chain: EVQLLESGGGLVQPGGSLRLSCAASGFTFRDYEMWWVRQAPGKGLERVSAINPQGTRTYYADSVKGRFTISRDNSKNTLYLQMNSLRAEDTAVYYCAKLPFRFSDRGQGTLVTVSSASTEPKSCDKTHTCPPCPAPEAEGAPSVFLFPPKPKDTLMISRTPEVTCVVVDVSHEDPEVKFNWYVDGVEVHNAKTKPREEQYNSTYRVVSVLTVLHQDWLNGKEYKCKVSNKALPAPIEKTISKAKGQPREPQVYTLPPSREEMTKNQVSLTCLVKGFYPSDIAVEWESNGQPENNYKTTPPVLDSDGSFFLYSKLTVDKSRWQQGNVFSCSVMHEALHNHYTQKSLSLSPGK
notes: dAb-Fc fusion protein
B2: 3h56-269-IgG1.1f (Fc fusion)
chain: B1 chain with A234S, P235S
notes: dAb-Fc fusion protein
B3: CD73.3-IgG1.1 (antibody, V domains shown)
VH: EVQLVESGGGLVQPGRSLRLSCAASGFTFDDYAMHWVRQAPGKGLEWVSGISWKSGSIGYADSVKGRFTISRDNAKNSLYLQMNSLRAEDTVLYYCVKGYYVILTGLDYWGQGTLVTVSS
VL: not shown
notes: also called CD73.3-IgG1.1f; 3-Vh-hHC-IgG1.1f/4C3Vk1
B4: CD73.10-IgG2-C219S (antibody)
heavy: QVQLVESGGGVVQPGRSLRLSCAASGFTFSNYGMHWVRQAPGKGLEWVAVIWYDESNKYYPDSVKGRFTISRDNSKNTLYLQMNSLRAEDTAVYYCARGGSSWYPDSFDIWGQGTMVTVSSASTKGPSVFPLAPCSRSTSESTAALGCLVKDYFPEPVTVSWNSGALTSGVHTFPAVLQSSGLYSLSSVVTVPSSNFGTQTYTCNVDHKPSNTKVDKTVERKSCVECPPCPAPPVAGPSVFLFPPKPKDTLMISRTPEVTCVVVDVSHEDPEVQFNWYVDGVEVHNAKTKPREEQFNSTFRVVSVLTVVHQDWLNGKEYKCKVSNKGLPAPIEKTISKTKGQPREPQVYTLPPSREEMTKNQVSLTCLVKGFYPSDIAVEWESNGQPENNYKTTPPMLDSDGSFFLYSKLTVDKSRWQQGNVFSCSVMHEALHNHYTQKSLSLSPG
light: not shown
notes: also called CD73.10-IgG2CS; CD73.10-Vh-hHC-IgG2-C219S
B5: CD73.10-IgG2-C219S-IgG1.1 (antibody)
heavy: B4 heavy with Q274K, F296Y, F300Y, V309L, G327A, A330S, P331S, T339A
light: not shown
notes: also called CD73.10-IgG2CS-IgG1.1f; CD73.10-Vh-hHC-IgG2-C219S-IgG1.1f

How the values were obtained:
hCD40-Fc = biological target: T4, hCD40-Fc (human, UniProt P25942 21-193); experiment: SPR, hCD40-Fc immobilized, dAb-Fc analyte, avidity
T4 construct: Immobilized on the sensor chip; not shown: Fc part of hCD40-Fc not described

[1] = biological target: T5, purified human-CD40 monomer (human, UniProt P25942 21-193, limits assumed); experiment: SPR, dAb-Fc on protein A, hCD40monomer analyte; second set
T5 construct: Soluble analyte; also called hCD40monomer

hCD73-his [2] = biological target: T1, hCD73-his; experiment: DLS, target:mAb 1:1, 4 uM + 4 uM; unit from the text
Method: (§1) The structure and oligomeric state of CD73/antibody complexes in solution were examined by SEC-MALS and DLS.
(§2) Dynamic light scattering (DLS) studies were performed on a Wyatt DynaPro® plate reader in 384 well plates at 25° C. Experimental parameters were 20 acquisitions of 5 s each per measurement, and measurements were recorded in quadruplicate, with the average and standard deviation reported. Intensity autocorrelation functions were fitted using the “Regularization” algorithm in the Dynamics® software (Wyatt Technologies®).

hCD73-his [3] = biological target: T1, hCD73-his; experiment: SEC-MALS, target:mAb 1:1, 4 uM + 4 uM
Method: as §1
(§3) The oligomeric state of CD73/antibody complexes were examined by size-exclusion chromatography coupled to an in-line multi-angle light scattering detector (SEC-MALS). Isocratic separations were performed on a Shodex PROTEIN KW-803 column connected to an Prominence Shimadzu UFLC in buffer containing 200 mM K₂HPO₄, 150 mM NaCl, pH 6.8, containing 0.02% Na azide (0.1 μm filtered) running at 0.5 mL/min. Samples were injected onto the column using a SIL-20AC Prominence Shimadzu® autosampler, and data were obtained from three online detectors connected in series: a Prominence SPD-20AD diode array UV/vis spectrophotometer followed by a Wyatt miniDAWN™ TREOS Multi-Angle Light Scattering Detector then a Wyatt Optilab T-rEX Refractive Index Detector® instrument. Data were collected and analyzed using Astra® (Wyatt) and Labsolutions® (Shimadzu) software.

human CD73 on cells [4] = biological target: T2, human CD73 on cells; experiment: cell-based or functional assay
N-hCD73-his [5] = biological target: T3, N-hCD73-his; experiment: DLS, target:mAb 2:1, 8 uM + 4 uM; unit from the text
Method: as §1, §2

N-hCD73-his [6] = biological target: T3, N-hCD73-his; experiment: SEC-MALS, target:mAb 2:1, 8 uM + 4 uM
Method: as §1, §3

human CD73 on cells [7] = biological target: T2, human CD73 on cells; experiment: cell-based or functional assay; remark: listed apart in the source
hCD73-his [8] = biological target: T1, hCD73-his; experiment: SEC-MALS, target:mAb 1:1, 2.5 uM + 2.5 uM
Method: as §1, §3

N-hCD73-his [9] = biological target: T3, N-hCD73-his; experiment: SPR, mAb captured on protein A
Method: The affinity of the antibodies for human CD73 was measured to determine whether the change of the constant region affects them. The affinities were determined by Surface Plasmon Resonance (SPR) as follows. […] For these experiments, protein A (Pierce) was immobilized to a density of 3000-4000 RU on flow cells 1˜4 of a CMS sensor chip (GE Healthcare) using standard ethyl(dimethylaminopropyl) carbodiimide (EDC)/N-hydroxysuccinimide (NHS) chemistry, with ethanolamine blocking, in a running buffer of 0.01 M HEPES pH 7.4, 0.15 M NaCl, 3 mM EDTA, 0.005% v/v tween 20. […] The running buffer for the kinetic experiments was 10 mM sodium phosphate, 130 mM sodium chloride, 0.05% tween 20, pH 7.1. The surfaces were regenerated after each cycle using two 30 s pulses of 10 mM glycine pH 1.5 at a flow rate of 30 μl/min. Sensogram data was double-referenced and then fitted to a 1:1 Langmuir model using Biacore® T100 evaluation software v2.0.4, to determine the association rate constant (ka), the dissociation rate constant (kd), and the equilibrium dissociation constant (KD).

hCD73-his [10] = biological target: T1, hCD73-his; experiment: DLS, target:mAb 1:1, 2.5 uM + 2.5 uM; unit from the text
Method: as §1, §2

T5 sequence (P25942 21-193 limits assumed): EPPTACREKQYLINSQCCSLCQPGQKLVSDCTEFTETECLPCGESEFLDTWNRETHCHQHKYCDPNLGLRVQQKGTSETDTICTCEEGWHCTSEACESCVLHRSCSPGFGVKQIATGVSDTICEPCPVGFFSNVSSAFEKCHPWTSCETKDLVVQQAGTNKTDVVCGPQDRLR
T4 sequence (P25942 21-193): as the sequence (P25942 21-193 limits assumed) above

Row | Binder | KDapparent (hCD40-Fc) | Rh (hCD73-his [2]) | MW Peak 2 (hCD73-his [3]) | % internalization, H228 cells (human CD73 on cells [4]) | Rh (N-hCD73-his [5]) | MW Peak 1 (N-hCD73-his [6]) | internalization EC50, Calu6 cells, 2 h (human CD73 on cells [7]) | internalization Ymax (% of 100 nM 11F11), Calu6 cells (human CD73 on cells [7]) | MW Peak 1 (hCD73-his [8]) | MW Peak 2 (hCD73-his [8]) | Kd (N-hCD73-his [9]) | koff (N-hCD73-his [9]) | kon (N-hCD73-his [9]) | Rh (hCD73-his [10]) | % internalization, Calu6 cells (human CD73 on cells [4]) | % internalization, H2030 cells (human CD73 on cells [4]) | % internalization, HCC15 cells (human CD73 on cells [4]) | internalization T1/2, Calu6 cells (human CD73 on cells [4]) | internalization T1/2, H228 cells (human CD73 on cells [4]) | internalization T1/2, H2030 cells (human CD73 on cells [4]) | other results
1 | B1 | < 1 nM |  |  |  |  |  |  |  |  |  |  |  |  |  |  |  |  |  |  |  | Kd [1]: 9.8 nM; koff [1]: 0.00011 s⁻¹; kon [1]: 11000 M⁻¹ s⁻¹
2 | B2 | < 1 nM |  |  |  |  |  |  |  |  |  |  |  |  |  |  |  |  |  |  |  | 
3 | B3 |  | 10.8 nm | 530 kDa | -47% | 5.8 nm | 170 kDa |  |  |  |  |  |  |  |  |  |  |  |  |  |  | 
4 | B4 |  | 2.9 nm | 3400 kDa | 93% | 6.5 nm | 210 kDa | 0.67 nM | 99% | 2200 kDa | 310 kDa | 6.2 nM and 8.3 nM | 0.0014 s⁻¹ and 0.0018 s⁻¹ | 220000 M⁻¹ s⁻¹ | 23.9 nm | 91% | 85% | 91% | 3 min | 9.7 min | 3.3 min | internalization T1/2, HCC15 cells (human CD73 on cells [4]): 2.6 min; MW Peak 2 (N-hCD73-his [6]): 150 kDa
5 | B5 |  |  |  | 92% |  |  | 0.87 nM | 99% | 2000 kDa | 320 kDa | 5.7 nM and 6.8 nM | 0.0014 s⁻¹ and 0.0016 s⁻¹ | 240000 M⁻¹ s⁻¹ and 230000 M⁻¹ s⁻¹ | 25.6 nm | 91% | 87% | 91% | 3.1 min | 9.4 min | 4.3 min | MW Peak 3 (hCD73-his [8]): 390 kDa; internalization T1/2, HCC15 cells (human CD73 on cells [4]): 3 min
